# Data from patent US8206955B2, “Production of monatin and monatin precursors” (Cargill, Incorporated, priority 2003, dated 2012).
# How the values were obtained:
# Format in all cases: biochemical
# [1] = aminotransferase activity using D-tryptophan as substrate; conditions: purified (P)
# Description: Cell extracts were analyzed by SDS-PAGE, and assayed for tryptophan aminotransferase activity by following production of indole-pyruvic acid using the following protocol. […] The reactions were initiated by the addition of cell free extracts or purified enzyme and were incubated 30 minutes at 30° C. 20% TCA (200 μL) was added to stop the reaction, and the precipitated protein was removed by centrifugation. The absorbance at 327 nm was measured and compared to a standard curve of freshly prepared indole-3-pyruvate in the assay buffer. Control reactions without the substrate tryptophan or using cell-free extracts from clones transformed with pET30a alone were also performed.
# (§1) Table 1 lists the specific activities measured in micrograms of indole-3-pyruvate (I3P) formed per milligram protein per minute. […] In these cases a ‘>’ precedes the specific activity number.
# [2] = in vitro monatin production with aldolase and aminotransferase; conditions: 30 μg/mL KHG enzyme, 50 mM Tris pH 8.3, saturating tryptophan, one hour
# [3] = tryptophan aminotransferase activity, production of indole-pyruvic acid; conditions: for Specific Activity: 5 mM L-tryptophan, 30 minutes at 30° C.; for tryptophan aminotransferase activity (in words): recombinant clones expressed in E. coli
# Description: Cell extracts were analyzed by SDS-PAGE, and assayed for tryptophan aminotransferase activity by following production of indole-pyruvic acid using the following protocol. One mL reactions were carried out in 50 mM sodium tetraborate (pH 8.5), 0.5 mM EDTA, 0.5 mM sodium arsenate, 50 μM pyridoxal phosphate, 5 mM α-ketoglutarate, and 5 mM L-tryptophan. The reactions were initiated by the addition of cell free extracts or purified enzyme and were incubated 30 minutes at 30° C. 20% TCA (200 μL) was added to stop the reaction, and the precipitated protein was removed by centrifugation. The absorbance at 327 nm was measured and compared to a standard curve of freshly prepared indole-3-pyruvate in the assay buffer. Control reactions without the substrate tryptophan or using cell-free extracts from clones transformed with pET30a alone were also performed.
# Due to background from the native E. coli aminotransferases in cell extracts, the recombinant fusion proteins each containing an aminotransferase protein fused to the pET30 amino terminal HIS6-Tag/S-Tag (6×HIS tag disclosed as SEQ ID NO: 90) were purified using immobilized metal affinity chromatography with His-Bind cartridges following manufacturer's protocols (Novagen, Madison, Wis.). The HIS6-Tag sequence (SEQ ID NO: 90) of the fusion proteins binds to the divalent Ni^2+ cations immobilized on IDA-based His-Bind resin. The eluent fractions were desalted on PD-10 (Amersham Biosciences, Piscataway, N.J.) columns and eluted in 50 mM Tris, pH 7.0. Purified proteins were analyzed by SDS-PAGE and assayed for aminotransferase activity.
# as §1
# [4] = monatin aminotransferase assay (loss of monatin by LC/MS)
# Description: Transamination activity. Monatin aminotransferase assays were conducted with the aspartate aminotransferase (AspC) from E. coli, the tyrosine aminotransferase (TyrB) from E. coli, the broad substrate aminotransferase (BSAT) from L. major, and the two commercially available porcine glutamate-oxaloacetate aminotransferases described in Example 1. Both oxaloacetate and alpha-ketoglutarate were tested as the amino acceptor. The assay mixture contained (in 0.5 mL) 50 mM Tris-HCl, pH 8.0, 0.05 mM PLP, 5 mM amino acceptor, 5 mM monatin, and 25 μg of aminotransferase. The assays were incubated at 30° C. for 30 minutes, and the reactions were stopped by addition of 0.5 mL isopropyl alcohol. The loss of monatin was monitored by LC/MS (Example 6). […] The relative activity with oxaloacetate was: BSAT>AspC>porcine type IIa>porcine type I=TyrB. The relative activity with alpha-ketoglutarate was: BSAT>AspC>porcine type I>porcine type IIa>TyrB.
Molecule,Specific Activity [1] [μg I3P/mg protein/min],monatin produced [2] [ng/mL],Specific Activity ([3]; cell extracts (CE)) [μg I3P/mg protein/min],Specific Activity ([3]; purified (P)) [μg I3P/mg protein/min],tryptophan aminotransferase activity (in words) [3],"monatin transamination activity (in words) ([4]; oxaloacetate as the amino acceptor, 5 mM monatin, 25 μg aminotransferase, 30° C. 30 minutes)","conversion of monatin to MP (in words) ([4]; similar assays, conditions tested)"
"B. subtilis D-aminotransf.: Bacillus subtilis D-alanine aminotransferase (dat) (protein, UniProt O07597 1-282, looked up) D-alanine aminotransferase: MKVLVNGRLIGRSEASIDLEDRGYQFGDGIYEVIRVYKGVLFGLREHAERFFRSAAEIGISLPFSIEDLEWDLQKLVQENAVSEGAVYIQTTRGVAPRKHQYEAGLEPQTTAYTFTVKKPEQEQAYGVAAITDEDLRWLRCDIKSLNLLYNVMTKQRAYEAGAFEAILLRDGVVTEGTSSNVYAVINGTVRTHPANRLILNGITRMNILGLIEKNGIKLDETPVSEEELKQAEEIFISSTTAEIIPVVTLDGQSIGSGKPGPVTKQLQAAFQESIQQAASIS",2.7,,,,,,
"E. coli KHG: 4-hydroxy-2-oxoglutarate glyoxylate lyase (KHG aldolase) from E. coli (protein, UniProt P0A955 1-213, looked up) KHG/KDPG aldolase: MKNWKTSAESILTTGPVVPVIVVKKLEHAVPMAKALVAGGVRVLEVTLRTECAVDAIRAIAKEVPEAIVGAGTVLNPQQLAEVTEAGAQFAISPGLTEPLLKAATEGTIPLIPGISTVSELMLGMDYGLKEFKFFPAEANGGVKALQAIAGPFSQVRFCPTGGISPANYRDYLALKSVLCIGGSWLVPADALEAGDYDRITKLAREAVEGAKL",,3000,,,,,
"L. major bsat: Leishmania major broad substrate aminotransferase (bsat, SEQ ID NOS: 7 and 8) (protein, Leishmania major) MSMQAAMTTAERWQKIQAQAPDVIFDLAKRAAAAKGPKANLVIGAYRDEQGRPYPLRVVRKAEQLLLDMNLDYEYLPISGYQPFIDEAVKIIYGNTVELENLVAVQTLSGTGAVSLGAKLLTRVFDAETTPIYLSDPTWPNHYGVVKAAGWKNICTYAYYDPKTVSLNFEGMKKDILAAPDGSVFILHQCAHNPTGVDPSQEQWNEIASLMLAKHHQVFFDSAYQGYASGSLDTDAYAARLFARRGIEVLLAQSFSKNMGLYSERAGTLSLLLKDKTKRADVKSVMDSLIREEYTCPPAHGARLAHLILSNNELRKEWEAELSAMAERIRTMRRTVYDELLRLQTPGSWEHVINQIGMFSFLGLSKAQCEYCQNHNIFITVSGRANMAGLTHETALMLAQTINDAVRNVNRE",,,>49.3,>4280,significant levels of tryptophan aminotransferase activity,highest amount of activity,
"S. meliloti tatA: Sinorhizobium meliloti tyrosine aminotransferase (tatA, SEQ ID NOS: 1 and 2) (protein, listed as Sinorhizobium meliloti) MFDALARQADDPLLFLIGLFRKDERPGKVDLGVGVYRDETGRTPIFRAVKAAEKRLLETQDSKAYIGPEGDLVFLDRLWELVGGDTIERSHVAGVQTPGGSGALRLAADLIARMGGRGIWLGLPSWPNHAPIFKAAGLDIATYDFFDIPSQSVIFDNLVSALEGAASGDAVLLHASCHNPTGGVLSEAQWMEIAALVAERGLLPLVDLAYQGFGRGLDQDVAGLRHLLGVVPEALVAVSCSKSFGLYRERAGAIFARTSSTASADRVRSNLAGLARTSYSMPPDHGAAVVRTILDDPELRRDWTEELETMRLRMTGLRRSLAEGLRTRWQSLGAVADQEGMFSMLPLSEAEVMRLRTEHGIYMPASGRINIAGLKTAEAAEIAGKFTSL",,,>28.6,>931,significant levels of tryptophan aminotransferase activity,,did not appear to detectably convert monatin to MP
